Here are results for three molecules from PMC4579036.

Read-outs that look alike come from different tables or passages of the source.

Holding throughout (experiment): competition
The target of data set [1] is T1, Fis (Escherichia coli, UniProt P0A6R3 1-98).
Data set [2] has as its target T1, Fis. The source holds these as a separate data set.
The target of data set [3] is T1, Fis. This is another data set of the same source.

T1 sequence (P0A6R3 whole entry): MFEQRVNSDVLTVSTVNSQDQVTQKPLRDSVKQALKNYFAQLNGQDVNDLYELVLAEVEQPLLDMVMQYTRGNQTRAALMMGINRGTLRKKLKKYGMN

B1: F29 (dsDNA)
DNA 1: AAATTTGTTTGGGCGCTGAGCAAATTT
DNA 2: AAATTTGCTCAGCGCCCAAACAAATTT
Turning to B1, the binding result with Fis [1] is on record as “binds”.

B2: F1 (dsDNA)
DNA 1: AAATTTGTTTGAATTTTGAGCAAATTT
DNA 2: AAATTTGCTCAAAATTCAAACAAATTT
As for B2, in the data set with Fis [2], the binding result is “binds”.

B3: F28 (dsDNA)
DNA 1: AAATTTGTTTGAGCGTTGAGCAAATTT
DNA 2: AAATTTGCTCAACGCTCAAACAAATTT
On to B3, for which the binding result with Fis [3] was “binds”.
